test system: MS2 coat protein; assay: apparent KD of MS2 coat protein; higher = weaker reporter binding; details: Eterna round: R107; input ligand: arginine 13.2 mM
Method in brief: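 Normalised binding curves from single clusters were fitted, and the median fit for each design is given as apparent KD. The clusters held designed RNA switches transcribed on-chip from Illumina sequencing clusters. These were titrated with SNAP-549-labelled MS2 coat protein (twofold steps from 0.7 or 1.5 nM to 3 µM, 0.8–1.5 h to 10–20 min per step) in 100 mM Tris-HCl pH 7.5, 80 mM KCl, 4 mM MgCl2, without or with constant ligand.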

| Sequence | apparent KD of MS2 coat protein |
| --- | --- |
| UGUCGGCGAAAGUUGGCGUGUCUUGCUGGUCGAGGACCGGUACGGCCGCCACUCGAUCCUUCGCACAUGAGGAUCACCCAUGUUG [SS Tryp A #24] | 25.8 nM |
| AAUAAACAUGAGGAUCACCCAUGUAGGGUGCGAGGACCGGUACGGCCGCCACUCGGGUGAAAACAUGAGGAUCACCCAUGUUAAA [Cloverleaf #DoubleMS2 #GUTurnoff] | 75.5 nM |
| UAACAUGAGGAUCACCCAUGUAAACUAAGUCGAGGACCGGUACGGCCGCCACUCGAAAUUGAAGAAUUGGCGGAAAAUGUAUGUU [JR_ExcTryptoA_Sub018] | 12 nM |

same assay, conditions: Eterna round: R107; input ligand: none

| Sequence | apparent KD of MS2 coat protein |
| --- | --- |
| AAUGUAAUAGUCGUACUCUUACACUGAGAAGGAGCGCGAAAGUUCGCAGGUAGGUCGCUCAGUUAUACAUGAGGAUCACCCAUGU [Bebemaata] | 24.8 nM |
| CGAUAGAUACGAAGGAGCGACAUGAGGAUCACCCAUGUCUACCACGUCGAAAGACGCUCAUGUCAGGUAGGUCGCGUAUUUAUCG [Astros-Eli-mod8] | 122 nM |
| UGUAUGGACUGAAGGAGCGGGUUGAUAACCUGAGGAUCAUCCAGGUAAAAGGCGAAAGCCGCCCAGGUAGGUCGCAGUCCAUACU | 158 nM |
| UUUUUUAUUGGGUAUAGAAUAUUAACUGAAGGAGCGUGGUAUUACACAGGUAGGUCGCAGUUUUUACAUGAGGAUCACCCAUGUU [JR_SSArginiA_Sub010] | 38.5 nM |
| GUUGAGACCUCGGCCGCCACUCGCCAUGAGGAUCUCCCAUGUAACAUGAGGAUCACCCAUGUACUGAGGACCGGGAGGUCCUAGU [Same State Tryptophan B GF 15] | 17.4 nM |
| GGGAGGUAGGCGGCCGCCACUGAUUUUCAUAUAUAUAUAACAUGAGGAUCACCCAUGUAGAUAUACAGGACCGGGCCUAUUUUUU [aaaF] | 18.8 nM |
| GUAUAAAGAAAACUUUAUACAGUGGGUGAACGAGGACCGGUACGGCCGCCACUCGGACAUGAGGAUCACCCAUGUCCAUGUGAAA [AstrosExyTryA#9] | 14.3 nM |
| ACAUGAGGAUCACCCAUGUAACAAACAGAAGGAGCGUGAAAGAACACAGGUAGGUCGCUGAACUUAAUGAAUACUCAUUAGAUCC [JR_Nu_SSArginiA_Sub027] | 14.7 nM |
| UCGCCCAGAAAGGAUUCCUGGGAUAUGGAAGGAGCGCUGAUGCCAGCAGGUAGGUCGCCAACGGACAUGAGGAUCACCCAUGUAC [Same State - Arginine A (Freestyle 7)] | 17.3 nM |
| AUGUAGAACCGAAGGAGCGCGAUAACAUGAGGAUCACCCAUGUAGUUUUGGUGGCUUCGAUCGCAGGUAGGUCGCGGAAGUAGUA [#03 Exclusion - Arginine B] | 35.9 nM |
| ACAUGAGGAUCACCCAUGUAAUCAUCAGAAGGAGCGUGGAAUAACACAGGUAGGUCGCUGAUGUUAUAUUAAUCUUAUUCGUAAA [JR_ExcArginiA_Sub003] | 13.6 nM |
| GCUAGUGGCAGAAGGAGCGACAUUUAUAGUGGUCGAUACAUGAGGAUCACCCAUGUACUAUGUCAGGUAGGUCGCUGCCACUAGC [EAB NP+V+V2 #5] | 35.1 nM |
| UCGCCCAGGAUGGAAUCCUGGGAUAUGGAAGGAGCGCUGAUGCCAGCAGGUAGGUCGCCAACGGACAUGAGGAUCACCCAUGUAC [Same State - Arginine A (Freestyle 9)] | 19.1 nM |

same assay, conditions: Eterna round: R107; input ligand: theophylline 20 uM

| Sequence | apparent KD of MS2 coat protein |
| --- | --- |
| GGCAAAAGGUCGGCCGCCACUGUAGGAUGUGUUCUUUCACAUGAGGAUCACCCAUGUUGUUAUUAUAGGACCGGGAUUUUAGGAC [39MS split4] | 31.7 nM |
| ACGAGACGUCUGGAUACCAGCCCAGCGAUAAACAUGAGGAUCACCCAUGUCAAACCACCCGGCCCUUGGCAGCCACGUACCUCAC [theeternabot_sameState_MS2_Theo_B_10] | 19.1 nM |
| ACCGGCACCUAGGAUACCAGAUCCACAACAAACAUGAGGAUCACCCAUGUAUAAAGUGGUAUCCCUUGGCAGCCUGUGACAAUCG [theeternabot_sameState_MS2_Theo_B_19] | 21.4 nM |
| AAUAAUAAGGCGGCCGCCACUACACAUGAGGAUCACCCAUGUCUCGCGGGCUUGCGUUGGGAUUGUAGGACCGGGCCAAUAAUAA [Exclusion - Tryptophan B (Freestyle 11)] | 35.7 nM |
| ACAUGAGGAUCACCCAUGUUUGAUGUUCCUCGAGGACCGGUACGGCCGCCACUCGAACGAGUGGCGCGCGAGCGCGCGCUCGCGC [aRa] | 20.3 nM |
| AAUGUAAUAGUCGUACUCUUACACUGAGAAGGAGCGCGAAAGUUCGCAGGUAGGUCGCUCAGUUAUACAUGAGGAUCACCCAUGU [Bebemaata] | 28.3 nM |
| CGAUAGAUACGAAGGAGCGACAUGAGGAUCACCCAUGUCUACCACGUCGAAAGACGCUCAUGUCAGGUAGGUCGCGUAUUUAUCG [Astros-Eli-mod8] | 124 nM |
| AACAUGAGGAUCACCCAUGUACCUUUCGAUCGAGGACCGGUACGGCCGCCACUCGAAAACAUGAGGAUCACCCAUGUUCAACAGG [Tryp A SS t3] | 128 nM |
| UUCACAUGGUAUGAAUAUACAUAUAAGAAACGAGGACCGGUACGGCCGCCACUCGUGCCGGAAACAUGAGGAUCACCCAUGUGUU [AK1.1 Exclusion TrypA mod IceBolt] | 55.9 nM |
| ACACCAUACAUGAGGAUCACCCAUGUUACACGAGGACCGGUACGGCCGCCACUCGAAUUCAGGAAACCUCGGAUAAUAUUGUGAA [JR_SS-TryptA_Sub001] | 50.1 nM |
| UGUAUGGACUGAAGGAGCGGGUUGAUAACCUGAGGAUCAUCCAGGUAAAAGGCGAAAGCCGCCCAGGUAGGUCGCAGUCCAUACU | 227 nM |
| UUAUAAGUACCGGUCCUCAGAUCCUCAUGACGAGGACCGGUACGGCCGCCACUCGAAACAUGAGGAUCACCCAUGUAAUAAUACC [Brourdmod12] | 71.5 nM |
| UUUUUUAUUGGGUAUAGAAUAUUAACUGAAGGAGCGUGGUAUUACACAGGUAGGUCGCAGUUUUUACAUGAGGAUCACCCAUGUU [JR_SSArginiA_Sub010] | 51.5 nM |
| GUUGAGACCUCGGCCGCCACUCGCCAUGAGGAUCUCCCAUGUAACAUGAGGAUCACCCAUGUACUGAGGACCGGGAGGUCCUAGU [Same State Tryptophan B GF 15] | 34 nM |
| GGGAGGUAGGCGGCCGCCACUGAUUUUCAUAUAUAUAUAACAUGAGGAUCACCCAUGUAGAUAUACAGGACCGGGCCUAUUUUUU [aaaF] | 21.9 nM |
| AGCGCAGGUCCUGAUACCAGAGACAUGAGGAUCACCCAUGUCCGAUGGUCCUGCCUCAGGCUCCCUUGGCAGCAGGGCUUGUGCU [Exclusion Theophylline B GF10] | 13.1 nM |
| GUAUAAAGAAAACUUUAUACAGUGGGUGAACGAGGACCGGUACGGCCGCCACUCGGACAUGAGGAUCACCCAUGUCCAUGUGAAA [AstrosExyTryA#9] | 13.9 nM |
| ACAUGAGGAUCACCCAUGUAACAAACAGAAGGAGCGUGAAAGAACACAGGUAGGUCGCUGAACUUAAUGAAUACUCAUUAGAUCC [JR_Nu_SSArginiA_Sub027] | 18.9 nM |

Reference: the supplement of paper PMC9170038
